# Numbering of substitutions follows the chain as printed.
# B1: mIL27Ra VHH6 (VHH)
# VHH: QVQLQESGGGSVQAGGSLRLSCAASGYTYSSYCMAWFRQAPGKEREGVAAIDSDGSTSYADSVKGRFTISKDNAKNTLYLQMNSLKPEDTAMYYCAAASGRCLGPGIRSLIWGQGTQVTVSS
# notes: Camel VHH as periplasmic extract of a phage clone in the PE-ELISA; also called anti-mouse IL27Rα VHH; not shown: HA/His tag from the pMECS phagemid
# B2: mIL27Ra VHH5 (VHH)
# VHH: QVQLQESGGGSVQAGGSLRLSCAVSGDSTYSMGWFRQPPGKEREGVAAIAKDGITIHADSVKGRFTISKDNAKNTLYLQMNSLKPEDTAMYYCAAHRPYGPPLNPRWYTYWGQGTQVTVSS
# notes: as for B1
# B3: mIL27Ra VHH10 (VHH)
# VHH: B2 VHH with A50G
# notes: as for B1
# B4: mIL27Ra VHH9 (VHH)
# VHH: B2 VHH with N81S
# notes: as for B1
# B5: mIL27Ra VHH14 (VHH)
# VHH: B2 VHH with A50T, K69G, S82N
# notes: as for B1
# B6: mIL27Ra VHH8 (VHH)
# VHH: B2 VHH with A50P, K51T
# notes: as for B1
# B7: mIL27Ra VHH7 (VHH)
# VHH: QVQLQESGGGSVQAGGSLRLSCAVSGDSTYSMGWFRQPPGKEREGVAAITKDITIHADSVKGRFTISKDNAKNTLYLQMNSLKPEDTAMYYCAAHRPYGPPLNPRWYTYWGQGTQVTVSS
# notes: as for B1
# B8: mIL27Ra VHH11 (VHH)
# VHH: B7 VHH with K83R
# notes: as for B1
# Target: T1, mIL27Rα ECD antigen (mouse, UniProt O70394 25-510)
# T1 construct: Antigen of biopanning and PE-ELISA; The immunogen was made as a fusion of the ECD (residues 25-510 of the precursor) with the human IgG1 hinge and Fc; also called ECD of mouse IL27Rα; IL27Rα coated on the plate
# T1 sequence: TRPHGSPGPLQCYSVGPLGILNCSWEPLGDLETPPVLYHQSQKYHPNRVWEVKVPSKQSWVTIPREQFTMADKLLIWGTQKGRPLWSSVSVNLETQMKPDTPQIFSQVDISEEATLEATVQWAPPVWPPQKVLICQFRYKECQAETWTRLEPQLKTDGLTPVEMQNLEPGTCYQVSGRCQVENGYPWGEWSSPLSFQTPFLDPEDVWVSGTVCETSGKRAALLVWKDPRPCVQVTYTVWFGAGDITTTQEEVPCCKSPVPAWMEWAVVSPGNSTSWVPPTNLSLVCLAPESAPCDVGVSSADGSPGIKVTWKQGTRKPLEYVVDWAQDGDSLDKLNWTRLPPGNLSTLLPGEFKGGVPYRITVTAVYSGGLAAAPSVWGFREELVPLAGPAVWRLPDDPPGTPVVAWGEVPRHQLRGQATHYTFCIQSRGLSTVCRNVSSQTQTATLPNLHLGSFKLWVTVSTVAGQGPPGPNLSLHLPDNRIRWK
# Test: PE-ELISA, periplasmic extract on antigen-coated plate
# Procedure: Upon completion of the biopanning of Example 3, three 96-well plates of individual phage clones were isolated in order to perform periplasmic extract ELISA (PE-ELISA) on IL27Rα coated plates to identify positive VHH binders that selectively bound […]. A 96-well plate was coated with IL27Rα and PBS under the same conditions. Next, wells were blocked at 37° C. for 1 h. Then, 100 µl of extracted antibodies was added to each well and incubated for 1 h. Subsequently, 100 µl of anti-tag polyclonal antibody conjugated to HRP was added to each well and incubated at 37° C. for 1 h. Plates were developed with TMB substrate. The reaction was stopped by the addition of H2SO4. Absorbance at 450 nm was read on a microtiter plate reader. […] Positive clones were sequenced, and sequences analyzed to identify unique clonotypes.
row,Binder,binding result
1,B1,binds
2,B2,binds
3,B3,binds
4,B4,binds
5,B5,binds
6,B6,binds
7,B7,binds
8,B8,binds

# From US12157773 (SYNTHEKINE, dated 2024)
